{"source": "IntAct's records for PubMed 31515488", "parents": {"B1": {"name": "Methylthioribulose-1-phosphate dehydratase (Homo sapiens), Q96GX9 (parent)", "chain": "MSGCDAREGDCCSRRCGAQDKEHPRYLIPELCKQFYHLGWVTGTGGGISLKHGDEIYIAPSGVQKERIQPEDMFVCDINEKDISGPSPSKKLKKSQCTPLFMNAYTMRGAGAVIHTHSKAAVMATLLFPGREFKITHQEMIKGIKKCTSGGYYRYDDMLVVPIIENTPEEKDLKDRMAHAMNEYPDSCAVLVRRHGVYVWGETWEKAKTMCECYDYLFDIAVSMKKVGLDPSQLPVGENGIV", "partner": "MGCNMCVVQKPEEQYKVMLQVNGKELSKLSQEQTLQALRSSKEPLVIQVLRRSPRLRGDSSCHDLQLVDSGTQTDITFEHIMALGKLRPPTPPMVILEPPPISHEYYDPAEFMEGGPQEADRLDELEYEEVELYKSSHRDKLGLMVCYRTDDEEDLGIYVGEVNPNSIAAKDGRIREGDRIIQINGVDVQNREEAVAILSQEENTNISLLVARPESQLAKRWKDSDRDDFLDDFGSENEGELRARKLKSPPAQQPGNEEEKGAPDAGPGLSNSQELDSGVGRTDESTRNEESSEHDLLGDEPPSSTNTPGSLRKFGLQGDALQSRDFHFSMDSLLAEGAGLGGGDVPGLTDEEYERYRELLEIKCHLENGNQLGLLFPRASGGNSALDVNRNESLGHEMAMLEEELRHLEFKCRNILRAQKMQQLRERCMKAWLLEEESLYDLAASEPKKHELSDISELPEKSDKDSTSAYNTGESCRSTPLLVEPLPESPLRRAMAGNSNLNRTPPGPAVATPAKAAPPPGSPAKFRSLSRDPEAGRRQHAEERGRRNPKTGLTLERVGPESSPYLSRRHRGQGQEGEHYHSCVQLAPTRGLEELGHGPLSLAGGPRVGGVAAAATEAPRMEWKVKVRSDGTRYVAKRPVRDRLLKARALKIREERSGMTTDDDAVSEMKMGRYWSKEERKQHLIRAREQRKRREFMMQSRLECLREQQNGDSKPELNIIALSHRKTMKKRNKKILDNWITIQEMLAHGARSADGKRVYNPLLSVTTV"}, "B2": {"name": "Trichoplein keratin filament-binding protein (Homo sapiens), Q9BT92 (parent)", "chain": "MALPTLPSYWCSQQRLNQQLARQREQEARLRQQWEQNSRYFRMSDICSSKQAEWSSKTSYQRSMHAYQREKMKEEKRRSLEARREKLRQLMQEEQDLLARELEELRLSMNLQERRIREQHGKLKSAKEEQRKLIAEQLLYEHWKKNNPKLREMELDLHQKHVVNSWEMQKEEKKQQEATAEQENKRYENEYERARREALERMKAEEERRQLEDKLQAEALLQQMEELKLKEVEATKLKKEQENLLKQRWELERLEEERKQMEAFRQKAELGRFLRHQYNAQLSRRTQQIQEELEADRRILQALLEKEDESQRLHLARREQVMADVAWMKQAIEEQLQLERAREAELQMLLREEAKEMWEKREAEWARERSARDRLMSEVLTGRQQQIQEKIEQNRRAQEESLKHREQLIRNLEEVRELARREKEESEKLKSARKQELEAQVAERRLQAWEADQQEEEEEEEARRVEQLSDALLQQEAETMAEQGYRPKPYGHPKIAWN"}, "B3": {"name": "cGMP-dependent protein kinase 1 (Homo sapiens), Q13976 (parent)", "chain": "MSELEEDFAKILMLKEERIKELEKRLSEKEEEIQELKRKLHKCQSVLPVPSTHIGPRTTRAQGISAEPQTYRSFHDLRQAFRKFTKSERSKDLIKEAILDNDFMKNLELSQIQEIVDCMYPVEYGKDSCIIKEGDVGSLVYVMEDGKVEVTKEGVKLCTMGPGKVFGELAILYNCTRTATVKTLVNVKLWAIDRQCFQTIMMRTGLIKHTEYMEFLKSVPTFQSLPEEILSKLADVLEETHYENGEYIIRQGARGDTFFIISKGTVNVTREDSPSEDPVFLRTLGKGDWFGEKALQGEDVRTANVIAAEAVTCLVIDRDSFKHLIGGLDDVSNKAYEDAEAKAKYEAEAAFFANLKLSDFNIIDTLGVGGFGRVELVQLKSEESKTFAMKILKKRHIVDTRQQEHIRSEKQIMQGAHSDFIVRLYRTFKDSKYLYMLMEACLGGELWTILRDRGSFEDSTTRFYTACVVEAFAYLHSKGIIYRDLKPENLILDHRGYAKLVDFGFAKKIGFGKKTWTFCGTPEYVAPEIILNKGHDISADYWSLGILMYELLTGSPPFSGPDPMKTYNIILRGIDMIEFPKKIAKNAANLIKKLCRDNPSERLGNLKNGVKDIQKHKWFEGFNWEGLRKGTLTPPIIPSVASPTDTSNFDSFPEDNDEPPPDDNSGWDIDF", "partner": "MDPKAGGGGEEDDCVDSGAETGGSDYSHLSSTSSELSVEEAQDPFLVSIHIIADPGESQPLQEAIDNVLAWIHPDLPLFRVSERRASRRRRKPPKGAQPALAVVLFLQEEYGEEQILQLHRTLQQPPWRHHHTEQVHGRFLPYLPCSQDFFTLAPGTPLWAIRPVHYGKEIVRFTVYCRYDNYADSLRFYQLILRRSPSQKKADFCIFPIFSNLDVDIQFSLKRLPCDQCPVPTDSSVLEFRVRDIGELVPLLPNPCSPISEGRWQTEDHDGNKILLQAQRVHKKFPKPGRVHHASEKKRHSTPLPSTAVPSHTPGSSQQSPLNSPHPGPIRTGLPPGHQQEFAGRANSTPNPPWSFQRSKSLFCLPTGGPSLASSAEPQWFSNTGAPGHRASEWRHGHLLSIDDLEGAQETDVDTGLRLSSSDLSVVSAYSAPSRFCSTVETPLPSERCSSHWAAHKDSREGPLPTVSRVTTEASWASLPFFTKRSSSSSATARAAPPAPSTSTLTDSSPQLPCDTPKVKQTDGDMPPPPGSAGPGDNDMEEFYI"}, "B4": {"name": "Isoform 1 of EF-hand domain-containing family member C2 (Homo sapiens), Q5JST6-1 (parent)", "chain": "MALPLLPGNSFNRNVGKEKFHKSQHWGFCNNVMMLVSDEKPGIGGEPLLGQKIKPKCSIYPKGDGSDVPSWVAFDKQVLSFDAYLEEEVLDKSQTNYRIRYYKIYFYPEDDTIQVNEPEVKNSGLLQGTSIRRHRITLPPPDEDQFYTVYHFNVGTEVVFYGRTFKIYDCDAFTRNFLRKIGVKVNPPVQCPEDPYMKIRREVVEHVEPLRPYESLDTLKQFLQYHGKILCFFCLWDDSVSMFGDRRELILHYFLCDDTIEIKELLPHSSGRDALKMFLRRSKLPKNCPPRVYQPGQITDRAVLNSYGDFIKNQADGYLFDRYKLGKVDQEFYKDSDLSLGVTINVWGRKVLLYDCDEFTKSYYKSKYGIENFTSVSCKPPSPPPKIERKFPPYNGFGSEEDSLRNCIDLKPTPHRRNFKKFMEKDSYGSKSNILRFFAKLVTDKCVDLDRMFVISYYLGDDTISVFEPIERNSGIAGGMFLKRSRVKKPGQEVFKSELSEYIKAEELYIGVTVNVNGYLFRLLNADEYTLNYMEQNTDKYPFSNLKLALQKLKQEEGKSRELKQVFKAADSKHTNMVDYNTFRDILMSLTVGNLAEQEFVTIARHYRVPEGTCSDMDFLIALAHEKFKKNMFENFDTFIYSCVYEDREKKNVLPTKDIKRLCKSSRLPLSDDLLESLLSRFEDSEKQIDYKSFFSALNWRKNPVPELQPASYLKERCEDVWLGMPSPIPAKYIDYWTFLKDAFGLEEE", "partner": "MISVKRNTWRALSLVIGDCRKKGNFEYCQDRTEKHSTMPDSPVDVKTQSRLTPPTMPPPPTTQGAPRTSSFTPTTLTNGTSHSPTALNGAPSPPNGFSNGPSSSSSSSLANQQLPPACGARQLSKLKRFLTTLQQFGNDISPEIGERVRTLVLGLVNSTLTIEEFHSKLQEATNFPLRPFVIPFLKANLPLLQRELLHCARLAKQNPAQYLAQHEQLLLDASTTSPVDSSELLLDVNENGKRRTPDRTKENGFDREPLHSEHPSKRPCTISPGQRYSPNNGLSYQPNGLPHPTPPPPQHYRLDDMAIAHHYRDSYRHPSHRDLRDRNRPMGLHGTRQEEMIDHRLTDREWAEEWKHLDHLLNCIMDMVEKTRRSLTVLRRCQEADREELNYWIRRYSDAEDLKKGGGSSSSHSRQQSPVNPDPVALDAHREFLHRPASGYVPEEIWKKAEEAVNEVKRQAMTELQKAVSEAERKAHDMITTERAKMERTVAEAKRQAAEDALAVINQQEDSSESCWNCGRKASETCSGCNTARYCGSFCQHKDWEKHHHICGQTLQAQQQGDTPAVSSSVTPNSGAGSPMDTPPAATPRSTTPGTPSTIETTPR"}, "B5": {"name": "DNA mismatch repair protein Mlh1 (Homo sapiens), P40692 (parent)", "chain": "MSFVAGVIRRLDETVVNRIAAGEVIQRPANAIKEMIENCLDAKSTSIQVIVKEGGLKLIQIQDNGTGIRKEDLDIVCERFTTSKLQSFEDLASISTYGFRGEALASISHVAHVTITTKTADGKCAYRASYSDGKLKAPPKPCAGNQGTQITVEDLFYNIATRRKALKNPSEEYGKILEVVGRYSVHNAGISFSVKKQGETVADVRTLPNASTVDNIRSIFGNAVSRELIEIGCEDKTLAFKMNGYISNANYSVKKCIFLLFINHRLVESTSLRKAIETVYAAYLPKNTHPFLYLSLEISPQNVDVNVHPTKHEVHFLHEESILERVQQHIESKLLGSNSSRMYFTQTLLPGLAGPSGEMVKSTTSLTSSSTSGSSDKVYAHQMVRTDSREQKLDAFLQPLSKPLSSQPQAIVTEDKTDISSGRARQQDEEMLELPAPAEVAAKNQSLEGDTTKGTSEMSEKRGPTSSNPRKRHREDSDVEMVEDDSRKEMTAACTPRRRIINLTSVLSLQEEINEQGHEVLREMLHNHSFVGCVNPQWALAQHQTKLYLLNTTKLSEELFYQILIYDFANFGVLRLSEPAPLFDLAMLALDSPESGWTEEDGPKEGLAEYIVEFLKKKAEMLADYFSLEIDEEGNLIGLPLLIDNYVPPLEGLPIFILRLATEVNWDEEKECFESLSKECAMFYSIRKQYISEESTLSGQQSEVPGSIPNSWKWTVEHIVYKALRSHILPPKHFTEDGNILQLANLPDLYKVFERC", "partner": "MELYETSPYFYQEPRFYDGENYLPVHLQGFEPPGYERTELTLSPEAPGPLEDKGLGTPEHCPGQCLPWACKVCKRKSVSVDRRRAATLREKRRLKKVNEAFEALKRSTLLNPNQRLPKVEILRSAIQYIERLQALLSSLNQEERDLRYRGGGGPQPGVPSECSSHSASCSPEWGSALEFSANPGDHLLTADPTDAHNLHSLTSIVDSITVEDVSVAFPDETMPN"}}, "data": [{"variants_of": "B1", "conditions": "with pdzd4_human PDZD4, Q76G19", "values": [{"variant": "M181V", "effect of a mutation on the interaction": "with no effect"}]}, {"variants_of": "B2", "conditions": "with KRT15, P19012", "values": [{"variant": "R62Q", "effect of a mutation on the interaction": "with no effect"}, {"variant": "K127R", "effect of a mutation on the interaction": "with no effect"}]}, {"variants_of": "B2", "conditions": "with cdr2_human CDR2, Q01850", "values": [{"variant": "K127R", "effect of a mutation on the interaction": "with no effect"}]}, {"variants_of": "B2", "conditions": "with ndk7_human NME7, Q9Y5B8", "values": [{"variant": "K127R", "effect of a mutation on the interaction": "with no effect"}, {"variant": "E417K", "effect of a mutation on the interaction": "with no effect"}]}, {"variants_of": "B3", "conditions": "with FAM124A", "values": [{"variant": "N267S", "effect of a mutation on the interaction": "with no effect"}]}, {"variants_of": "B4", "conditions": "with mtg8_human RUNX1T1, Q06455", "values": [{"variant": "V376I", "effect of a mutation on the interaction": "with no effect"}]}, {"variants_of": "B4", "conditions": "with mtg8_human RUNX1T1, Q06455", "remark": "another data set of the same source", "values": [{"variant": "N31S", "effect of a mutation on the interaction": "disrupting interaction strength"}]}, {"variants_of": "B5", "conditions": "with myog_human MYOG", "values": [{"variant": "S106N", "effect of a mutation on the interaction": "with no effect"}, {"variant": "V384D", "effect of a mutation on the interaction": "with no effect"}, {"variant": "A441T", "effect of a mutation on the interaction": "with no effect"}]}, {"variants_of": "B5", "conditions": "with myog_human MYOG", "remark": "another data set of the same source", "values": [{"variant": "R69K", "effect of a mutation on the interaction": "with no effect"}]}]}
